# In US20260209789A1, “TRIGGER-INDUCIBLE MRNA CIRCULARIZATION” (WESTLAKE UNIVERSITY, priority 2022, published 2026):
# T1: (DocS)3 (Acetivibrio thermocellus, UniProt A3DH67)
# T1 sequence (A3DH67 with tags, fused parts or gaps): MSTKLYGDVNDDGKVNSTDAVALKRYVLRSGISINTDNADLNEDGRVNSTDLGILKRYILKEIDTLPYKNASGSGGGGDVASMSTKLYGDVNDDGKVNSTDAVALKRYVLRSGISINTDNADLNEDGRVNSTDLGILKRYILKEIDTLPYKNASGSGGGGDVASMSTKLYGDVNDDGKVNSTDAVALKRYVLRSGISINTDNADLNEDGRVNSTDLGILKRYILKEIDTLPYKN
# B1: NSP3: rotaviral non-structural protein 3 (protein)
# chain: LKMESTQQMASSIINTSFEAAVVAATSTLELMGIQYDYNEVYTRVKSKFDYVMDDSGVKNNLLGKAATIDQALNGKFGSAARNRNWMADTRTTARLDEDVNKLRMMLSSKGIDQKMRVLNACFNVKRVPGKSSSIIKCTRLMRDKIERGEVEVDDSFVEEKMEVDTIDWKSRYEQLEKRFESLKQRVNEKYTSWVQKAKKVNENMYSLQNVISQQQSQIADLQNYCNKLEVDLQNKISSLVSSVEWYLKSMELPDEIKTDIEQQLNSIDVINPINAIDDFESLIRNIILDYDRIFLMFKGLMRQCNYEYTYE
# B2: (DocS)3-NSP3: bipartite STIF regulator (protein)
# chain: MSTKLYGDVNDDGKVNSTDAVALKRYVLRSGISINTDNADLNEDGRVNSTDLGILKRYILKEIDTLPYKNASGSGGGGDVASMSTKLYGDVNDDGKVNSTDAVALKRYVLRSGISINTDNADLNEDGRVNSTDLGILKRYILKEIDTLPYKNASGSGGGGDVASMSTKLYGDVNDDGKVNSTDAVALKRYVLRSGISINTDNADLNEDGRVNSTDLGILKRYILKEIDTLPYKNASGSGGGGDVASMLKMESTQQMASSIINTSFEAAVVAATSTLELMGIQYDYNEVYTRVKSKFDYVMDDSGVKNNLLGKAATIDQALNGKFGSAARNRNWMADTRTTARLDEDVNKLRMMLSSKGIDQKMRVLNACFNVKRVPGKSSSIIKCTRLMRDKIERGEVEVDDSFVEEKMEVDTIDWKSRYEQLEKRFESLKQRVNEKYTSWVQKAKKVNENMYSLQNVISQQQSQIADLQNYCNKLEVDLQNKISSLVSSVEWYLKSMELPDEIKTDIEQQLNSIDVINPINAIDDFESLIRNIILDYDRIFLMFKGLMRQCNYEYTYE
# B3: (GNCR)3-NSP3: trigger-inducible STIF regulator (protein)
# chain: MDIEKLCKKAEEEAKEAQEKADELRQRHPDSQAAEDAEDLANLAVAAVLTACLLAQEHPNADIAKLCIKAASEAAEAASKAAELAQRHPDSQAARDAIKLASQAARAVILAIMLAAENPNADIAKLCIKAASEAAEAASKAAELAQRHPDSQAARDAIKLASQAAEAVERAIWLAAENPNADIAKKCIKAASEAAEEASKAAEEAQRHPDSQKARDEIKEASQKAEEVKERCKSASGSGGGGDVASDIEKLCKKAEEEAKEAQEKADELRQRHPDSQAAEDAEDLANLAVAAVLTACLLAQEHPNADIAKLCIKAASEAAEAASKAAELAQRHPDSQAARDAIKLASQAARAVILAIMLAAENPNADIAKLCIKAASEAAEAASKAAELAQRHPDSQAARDAIKLASQAAEAVERAIWLAAENPNADIAKKCIKAASEAAEEASKAAEEAQRHPDSQKARDEIKEASQKAEEVKERCKSASGSGGGGDVASDIEKLCKKAEEEAKEAQEKADELRQRHPDSQAAEDAEDLANLAVAAVLTACLLAQEHPNADIAKLCIKAASEAAEAASKAAELAQRHPDSQAARDAIKLASQAARAVILAIMLAAENPNADIAKLCIKAASEAAEAASKAAELAQRHPDSQAARDAIKLASQAAEAVERAIWLAAENPNADIAKKCIKAASEAAEEASKAAEEAQRHPDSQKARDEIKEASQKAEEVKERCKSASGSGGGGDVASMLKMESTQQMASSIINTSFEAAVVAATSTLELMGIQYDYNEVYTRVKSKFDYVMDDSGVKNNLLGKAATIDQALNGKFGSAARNRNWMADTRTTARLDEDVNKLRMMLSSKGIDQKMRVLNACFNVKRVPGKSSSIIKCTRLMRDKIERGEVEVDDSFVEEKMEVDTIDWKSRYEQLEKRFESLKQRVNEKYTSWVQKAKKVNENMYSLQNVISQQQSQIADLQNYCNKLEVDLQNKISSLVSSVEWYLKSMELPDEIKTDIEQQLNSIDVINPINAIDDFESLIRNIILDYDRIFLMFKGLMRQCNYEYTYE
# B4: (Coh2)3-NSP3: bipartite STIF regulator (protein)
# chain: MVVVEIGKVTGSVGTTVEIPVYFRGVPSKGIANCDFVFRYDPNVLEIIGIDPGDIIVDPNPTKSFDTAIYPDRKIIVFLFAEDSGTGAYAITKDGVFAKIRATVKSSAPGYITFDEVGGFADNDLVEQKVSFIDGGVNVASGSGGGGDVASVVVEIGKVTGSVGTTVEIPVYFRGVPSKGIANCDFVFRYDPNVLEIIGIDPGDIIVDPNPTKSFDTAIYPDRKIIVFLFAEDSGTGAYAITKDGVFAKIRATVKSSAPGYITFDEVGGFADNDLVEQKVSFIDGGVNVASGSGGGGDVASVVVEIGKVTGSVGTTVEIPVYFRGVPSKGIANCDFVFRYDPNVLEIIGIDPGDIIVDPNPTKSFDTAIYPDRKIIVFLFAEDSGTGAYAITKDGVFAKIRATVKSSAPGYITFDEVGGFADNDLVEQKVSFIDGGVNVASGSGGGGDVASMLKMESTQQMASSIINTSFEAAVVAATSTLELMGIQYDYNEVYTRVKSKFDYVMDDSGVKNNLLGKAATIDQALNGKFGSAARNRNWMADTRTTARLDEDVNKLRMMLSSKGIDQKMRVLNACFNVKRVPGKSSSIIKCTRLMRDKIERGEVEVDDSFVEEKMEVDTIDWKSRYEQLEKRFESLKQRVNEKYTSWVQKAKKVNENMYSLQNVISQQQSQIADLQNYCNKLEVDLQNKISSLVSSVEWYLKSMELPDEIKTDIEQQLNSIDVINPINAIDDFESLIRNIILDYDRIFLMFKGLMRQCNYEYTYE
# B5: (scFv162)3-NSP3: bipartite STIF regulator (protein)
# chain: MAEVQVQQSGAELVRSGASVKLSCTASGFNIKDYYMHWVKQRPEQGLEWIGWIDPANGNTKYDPKFQGKATITADTSSNTAYLQLSSLTSEDTAVYYCARWDWYFDVWGAGTTVTVSSGGGGSGGGGSGGGGSVFASGSGGGGDVASMAEVQVQQSGAELVRSGASVKLSCTASGFNIKDYYMHWVKQRPEQGLEWIGWIDPANGNTKYDPKFQGKATITADTSSNTAYLQLSSLTSEDTAVYYCARWDWYFDVWGAGTTVTVSSGGGGSGGGGSGGGGSVFASGSGGGGDVASMAEVQVQQSGAELVRSGASVKLSCTASGFNIKDYYMHWVKQRPEQGLEWIGWIDPANGNTKYDPKFQGKATITADTSSNTAYLQLSSLTSEDTAVYYCARWDWYFDVWGAGTTVTVSSGGGGSGGGGSGGGGSVFASGSGGGGDVASMLKMESTQQMASSIINTSFEAAVVAATSTLELMGIQYDYNEVYTRVKSKFDYVMDDSGVKNNLLGKAATIDQALNGKFGSAARNRNWMADTRTTARLDEDVNKLRMMLSSKGIDQKMRVLNACFNVKRVPGKSSSIIKCTRLMRDKIERGEVEVDDSFVEEKMEVDTIDWKSRYEQLEKRFESLKQRVNEKYTSWVQKAKKVNENMYSLQNVISQQQSQIADLQNYCNKLEVDLQNKISSLVSSVEWYLKSMELPDEIKTDIEQQLNSIDVINPINAIDDFESLIRNIILDYDRIFLMFKGLMRQCNYEYTYE
# B6: CCmut3-NSP3: bipartite STIF regulator (protein)
# chain: MVDPVGFAEAWKAQFPDSEPPRMELRSVGDIEQELERAEARIRRNEQRVNQERFRMIYLETLLAKEKKSYDRASGSGGGGDVASMLKMESTQQMASSIINTSFEAAVVAATSTLELMGIQYDYNEVYTRVKSKFDYVMDDSGVKNNLLGKAATIDQALNGKFGSAARNRNWMADTRTTARLDEDVNKLRMMLSSKGIDQKMRVLNACFNVKRVPGKSSSIIKCTRLMRDKIERGEVEVDDSFVEEKMEVDTIDWKSRYEQLEKRFESLKQRVNEKYTSWVQKAKKVNENMYSLQNVISQQQSQIADLQNYCNKLEVDLQNKISSLVSSVEWYLKSMELPDEIKTDIEQQLNSIDVINPINAIDDFESLIRNIILDYDRIFLMFKGLMRQCNYEYTYE
# What was measured:
# endogenous RNA (GAPDH) = test: RIP-qPCR: endogenous RNA binding of PABP- and NSP3-fusion proteins; set-up: species or system human; conditions: 3×FLAG-tagged L7Ae-NSP3 vs PABP-L7Ae, 48 h
# Source text: RNA immunoprecipitation (RIP)-qPCR.
# [1] = test system: STIF-specific target gene mRNA; test: Translational regulation by constitutive bipartite STIF reconstitution (SEAP, NanoLuc) in HEK-293 cells; format: cell-based, human; conditions: 48 h
# Source text: FIG. 8. Translational regulation by spontaneous assembly of bipartite STIFs. (A) Translational regulation through constitutive STIF reconstitution. […] Transfection of pcDNA3.1 (+) instead of NSP3-fusion proteins was used as a negative control. […] (B) Compatibility of STIF-mediated translational regulation with split-complementation approaches. […] For (−) conditions, pcDNA3.1 (+) was transfected instead of expression vectors.
# FIG. 9. Translational regulation through constitutive Coh2/DocS-mediated STIF reconstitution. (A) Site-specific translational activation by eIFBP overexpression. HEK-293 cells were (co-) transfected with an expression vector for SEAP-mRNA containing 24 tandem C/D-box-(left panel, pSL355) or MS2-box repeats in the 3′-UTR (right panel, pSL468), constitutive expression vectors for L7Ae (left) or MCP (right) fused to Coh2 (L7Ae-Coh2, pSL83; MCP-Coh2, pSL674) or EGFP (L7Ae-EGFP, pSL1078; MCP-EGFP, pSL435) and constitutive expression vectors for various chimeric Coh2-specific DocS-containing eIFBP fusions (PABP-DocS, pSL47; DocS-eIF4G, pSL87; DocS-eIF4E, pLZ312; DocS-NSP3, pSL66; DocS-VPg, pLZ311). Transfection of pcDNA3.1 (+) instead of DocS- or MCP-expressing vectors was used as a negative control. […] SEAP (left) and NanoLuc levels in culture supernatants (right) were quantified at 48 h post-transfection. […]
# GNCR: NS3a system = test: Grazoprevir-inducible SEAP translation in HEK-293 cells (fold-change, dose-dependence, kinetics vs transcriptional switch); conditions: three tandem GNCR and NS3a repeats
# Source text: Optimization of an L7Ae-based grazoprevir-inducible gene switch. (A) Translational regulation by grazoprevir-dependent STIF association. […] (B) Translational regulation by different grazoprevir-dependent NSP3-fusion proteins. […] (C) Translational regulation by different grazoprevir-dependent L7Ae-fusion proteins.
# Optimized L7Ae- and MCP-based grazoprevir-inducible gene switch in mammalian cells. (A) Optimized grazoprevir-inducible regulation of SEAP translation. […] (B, C) Dose-dependent grazoprevir-inducible SEAP expression.
# Comparative analysis of gene switches based on STIF-based translation and state-of-the-art transcription-centered designs. (A) Kinetics of grazoprevir-inducible SEAP expression. […] (B) Endpoint performance of grazoprevir-induced translational and transcriptional gene switch switches.
# (DocS)3 = biological target: T1, (DocS)3; test: Coh2/DocS-based STIF protein sensor for cytosolic (DocS)3; conditions: different amounts of pSL244, 48 h
# nNS3 = conditions: different amounts of overexpressed nNS3, 48 h
# BCR-ABL = test: Co-immunoprecipitation: BCR-ABL-mediated association of STIF components; format: binding, human; conditions: HEK-293 cells, 48 h
# Sequence of BCR-ABL (as listed by the source): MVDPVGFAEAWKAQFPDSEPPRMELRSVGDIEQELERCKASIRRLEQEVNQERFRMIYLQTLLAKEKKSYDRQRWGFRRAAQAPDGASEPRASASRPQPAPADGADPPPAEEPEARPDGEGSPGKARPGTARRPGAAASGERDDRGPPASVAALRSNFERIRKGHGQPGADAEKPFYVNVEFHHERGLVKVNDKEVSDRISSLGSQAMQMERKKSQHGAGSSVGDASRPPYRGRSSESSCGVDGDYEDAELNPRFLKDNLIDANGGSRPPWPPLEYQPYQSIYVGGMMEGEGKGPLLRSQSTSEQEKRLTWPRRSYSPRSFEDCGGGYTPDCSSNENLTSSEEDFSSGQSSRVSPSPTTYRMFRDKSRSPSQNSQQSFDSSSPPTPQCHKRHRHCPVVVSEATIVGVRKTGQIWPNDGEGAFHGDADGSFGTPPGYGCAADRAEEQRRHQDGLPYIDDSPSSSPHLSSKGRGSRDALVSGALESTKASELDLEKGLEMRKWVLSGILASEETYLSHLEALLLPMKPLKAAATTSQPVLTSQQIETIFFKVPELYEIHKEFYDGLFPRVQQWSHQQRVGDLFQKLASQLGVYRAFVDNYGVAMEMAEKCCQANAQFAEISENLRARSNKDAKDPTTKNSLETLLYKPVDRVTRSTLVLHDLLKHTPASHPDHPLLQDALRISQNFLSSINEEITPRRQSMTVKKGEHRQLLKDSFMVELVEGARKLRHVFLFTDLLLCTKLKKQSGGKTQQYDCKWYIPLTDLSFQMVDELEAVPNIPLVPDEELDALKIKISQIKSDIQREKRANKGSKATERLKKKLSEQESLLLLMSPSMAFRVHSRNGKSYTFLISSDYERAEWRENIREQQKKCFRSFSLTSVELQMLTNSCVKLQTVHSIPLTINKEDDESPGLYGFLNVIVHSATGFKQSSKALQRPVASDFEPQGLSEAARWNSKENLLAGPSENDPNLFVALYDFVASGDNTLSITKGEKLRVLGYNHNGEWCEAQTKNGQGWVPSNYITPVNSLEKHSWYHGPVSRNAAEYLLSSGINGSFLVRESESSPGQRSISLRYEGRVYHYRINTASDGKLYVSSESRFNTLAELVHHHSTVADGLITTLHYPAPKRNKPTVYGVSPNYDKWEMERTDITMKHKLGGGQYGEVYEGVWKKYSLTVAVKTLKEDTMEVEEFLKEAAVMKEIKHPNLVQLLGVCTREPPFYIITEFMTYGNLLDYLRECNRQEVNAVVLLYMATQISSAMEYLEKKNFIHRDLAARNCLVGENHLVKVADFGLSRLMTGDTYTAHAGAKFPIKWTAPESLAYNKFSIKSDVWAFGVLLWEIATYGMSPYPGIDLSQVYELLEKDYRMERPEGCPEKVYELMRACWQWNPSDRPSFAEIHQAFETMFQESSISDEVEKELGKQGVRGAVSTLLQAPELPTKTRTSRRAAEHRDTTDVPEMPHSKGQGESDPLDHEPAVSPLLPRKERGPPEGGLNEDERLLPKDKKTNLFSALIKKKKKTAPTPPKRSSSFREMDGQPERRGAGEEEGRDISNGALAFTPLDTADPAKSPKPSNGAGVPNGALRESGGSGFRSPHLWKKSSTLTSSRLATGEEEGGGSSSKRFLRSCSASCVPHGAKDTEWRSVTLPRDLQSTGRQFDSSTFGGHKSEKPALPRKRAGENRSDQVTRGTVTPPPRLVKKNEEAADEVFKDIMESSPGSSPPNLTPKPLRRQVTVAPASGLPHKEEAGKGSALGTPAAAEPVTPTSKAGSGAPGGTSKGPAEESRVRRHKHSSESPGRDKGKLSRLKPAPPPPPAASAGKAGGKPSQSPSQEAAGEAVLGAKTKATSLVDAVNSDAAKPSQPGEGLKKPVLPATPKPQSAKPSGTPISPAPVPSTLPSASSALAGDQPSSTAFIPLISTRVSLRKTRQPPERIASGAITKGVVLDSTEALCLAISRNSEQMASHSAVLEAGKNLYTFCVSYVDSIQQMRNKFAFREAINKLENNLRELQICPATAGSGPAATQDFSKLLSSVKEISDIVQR
molecule,measurement,setting,value
B1,non-specific binding to endogenous RNA (GAPDH RNA IP/input),endogenous RNA (GAPDH),much less non-specific binding to endogenous RNA than PABP
B2,target gene translation by spontaneous STIF assembly (SEAP),[1],modular and effective translational regulation
B3,"regulation performance (fold-change, dose-dependence, activation kinetics)",GNCR: NS3a system,best regulation performance
B4,detection of cytosolic (DocS)3 (SEAP),(DocS)3,in a dose-dependent manner
B5,activation of translation of L7Ae-specific target mRNA (SEAP),nNS3,in a strict nNS3-dependent manner
B6,assembly of STIF components upon BCR-ABL overexpression (co-IP),BCR-ABL,triggers assembly
